What is called stoichiometry N is the number of molecules, sites or subunits per partner or assembly.

The target of this test is CNTF-Rα/CNTF binary complex (human) (UniProt P26441). Nature of the test: SEC. Background: In gel filtration, larger molecules generally elute earlier.

In turn, gp130 (D1-D3) (domain or fragment) yielded a stoichiometry N of 1.

“gp130 (D2-D3) (from UniProt P40189 23-918) (domain or fragment)” displayed a stoichiometry N of 1.
